Measured values from patent US5591427A, “Human Interleukin-3(Il-3) variants and their use to promote or antagonize IL-3-mediated processes” (Medvet Science Pty. Ltd., priority 1979, dated 1997).

Legend:
[1] = tested on: bone marrow progenitor cells; assay: Colony assay: clonal proliferation and differentiation of bone marrow progenitor cells in semi-solid agar; format: cell-based
Procedure: (a) Colony assay: this assay measured the clonal proliferation and differentiation of bone marrow progenitor cells in semi-solid agar and was carried out as described (Lopez et. al., 1985, Blood 72, 1797-1804). Briefly, low density, macrophage-depleted bone marrow cells were cultured at a concentration of 0.5 to 1×10^5 /mL in Iscove's modified Dulbecco's medium (IMDM, GIBCI, Grant Island, N.Y.), containing 0.33% agar (Difco, Detroit), 25% FCS (Commonwealth Serum Laboratories, Parkville, Victoria, Australia), and 20 μmol/LK2-mercaptoethanol. Different dilutions of IL-3- containing COS cell supernatants were added to each plate. Plates were prepared in triplicate and scored after incubation at 37° C. in 5% CO2 in a humid atmosphere for 14 days. Clones containing 40 cells were scored as colonies.

basophils = assay: Histamine release assay with basophils; format: cell-based, human; settings: FIG. 4
Procedure: This was carried out as previously described (Lopez et. al., 1990, J. Cell. Physiol., 145, 69-77). Briefly, basophils were obtained from the peripheral blood of normal individuals after dextran sedimentation and centrifugation over Lymphoprep. The percentage of basophils in these preparations varied between 0.2% and 10%. In 300 μl 2×10^4 cells were incubated with 2 μg/ml of purified human IgE. IgE-sensitisedcells were mixed with a goat IgG antihuman IgE (Cappel 0101-0061) and rhIL-3, in a final volume of 500 μl. After incubation for 60 min at 37° C., the cells were centrifuged and 350 μl aliquots removed and stored at -20° C. before assaying for histamine content. Histamine was assayed using a radioertzymatic method essentially as described (Shaff and Beavan, 1979, Anal. Biochem., 94, 425-430). Briefly, samples of 30 μl were diluted with an equal volume of water and mixed with a 30 μl solution comprising 27.5 μl 0.1 M sodium phosphate, pH 7.9, 1.5 μl rat kidney histamine-N-methyltransferase, and 1.0 μl (0.5 μCi)^3 H-methyl-S-adensoyl-L-methionine (Dupont Net 155, low SA). Tritium-labelled methyl-histamine was extracted into chloroform/ether, dried, and counted by scintillation spectrophotometry. […] as nanograms of histamine per milliliter by extrapolation to a standard curve constructed with 10, 5 and 1 ng/ml of histamine (SIGMA).

IL-3R α chain = target: T1, IL-3R α chain (Homo sapiens, UniProt P26951); assay: Competition for 125I-IL-3 binding to cloned IL-3R α chain expressed in COS cell transfectants; settings: for competition for 125I-IL-3 binding to cells expressing only the α chain: FIG. 6
T1 construct: amplify the complete coding region of the IL-3R alpha chain; expressed in transfected cells; host or cells: COS cells (pCDM8 vector, electroporation)
T1 sequence (P26951 19-378): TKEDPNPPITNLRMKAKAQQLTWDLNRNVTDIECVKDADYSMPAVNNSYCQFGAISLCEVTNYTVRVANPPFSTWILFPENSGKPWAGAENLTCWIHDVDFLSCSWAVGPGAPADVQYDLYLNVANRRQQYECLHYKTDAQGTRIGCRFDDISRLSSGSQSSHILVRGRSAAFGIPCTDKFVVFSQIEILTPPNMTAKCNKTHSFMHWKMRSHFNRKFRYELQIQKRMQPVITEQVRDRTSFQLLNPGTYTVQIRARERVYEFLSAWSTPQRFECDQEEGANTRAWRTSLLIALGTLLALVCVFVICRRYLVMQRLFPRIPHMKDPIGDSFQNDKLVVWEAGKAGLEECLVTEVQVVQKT
Description: PolyA+ RNA was isolated from the human cord blood cell line KMT2. Oligo dT primed double stranded cDNA was synthesised and used as template for PCR amplification. The PCR primers were designed to amplify the complete coding region of the IL-3R alpha chain and also to amplify the coding region of the […]. The PCR products were cloned into the vector pGEM-2 for sequence verification, and then into the eukaryotic expression vector, pCDM8. The […]-containing plasmid was transfected into COS cells by electroporation, either on its own or in conjunction with the […], and after two days the cells were used for binding studies.

B1: M37: human IL-3 mutant, Asp 101 replaced by Ala and Lys 116 by Val (protein, UniProt P08700 20-152, looked up, variant D101A K116V)
Interleukin-3: APMTQTTPLKTSWVNCSNMIDEIITHLKQPPLPLLDFNNLNGEDQDILMENNLRRPNLEAFNRAVKSLQNASAIESILKNLLPCLPLATAAPTRHPIHIKAGDWNEFRRKLTFYLVTLENAQAQQTTLSLAIF
**Q.** Which results are given for B1?
**A.** number of day 14 colonies [1]: increase in the number of day 14 colonies; Relative biological activity, PROLIFERATION COLONIES ([1]; concentration of IL-3 mutant giving 50% of biological activity compared to that of wild type IL-3, mean ± SD): 1700; histamine release from basophils (basophils): increased histamine release; fold higher affinity than wild type IL-3 (IL-3R α chain; COS cells transfected with IL-3R α chain cDNA, E. coli produced protein): 10 fold; competition for 125I-IL-3 binding to cells expressing only the α chain (IL-3R α chain): competed for binding more efficiently; competition for 125I-IL-3 binding to cells expressing only the α chain (IL-3R α chain; listed as IL-3 (Ala^101, Val^116)): more potent at competing for binding than wild-type IL-3
